Results on six molecules are retold here after patent publication US20150225704A1 (UNIVERSITY OF BRITISH COLUMBIA, published 2015).

The labels stand for the following.
T1: FLAG-MKK7 wt (UniProt O14733 1-419, limits assumed)
T1 construct: Bought from Addgene; also called MKK7 wildtype; not shown: FLAG tag
T1 sequence (looked up): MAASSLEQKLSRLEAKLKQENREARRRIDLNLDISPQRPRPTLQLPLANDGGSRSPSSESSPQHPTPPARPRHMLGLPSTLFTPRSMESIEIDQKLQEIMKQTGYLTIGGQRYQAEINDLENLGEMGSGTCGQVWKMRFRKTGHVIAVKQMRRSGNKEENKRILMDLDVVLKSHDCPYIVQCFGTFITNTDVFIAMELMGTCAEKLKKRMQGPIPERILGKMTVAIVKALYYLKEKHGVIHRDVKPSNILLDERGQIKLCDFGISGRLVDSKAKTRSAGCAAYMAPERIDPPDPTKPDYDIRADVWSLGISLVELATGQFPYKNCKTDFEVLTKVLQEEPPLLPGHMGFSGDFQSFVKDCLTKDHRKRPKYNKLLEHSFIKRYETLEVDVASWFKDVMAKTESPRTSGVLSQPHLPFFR

B1: endogenous JNK1 of rat cortical neuronal cultures (enzyme, UniProt P49185 1-411, looked up)
chain: MSRSKRDNNFYSVEIADSTFTVLKRYQNLKPIGSGAQGIVCAAYDAILERNVAIKKLSRPFQNQTHAKRAYRELVLMKCVNHKNIIGLLNVFTPQKSLEEFQDVYIVMELMDANLCQVIQMELDHERMSYLLYQMLCGIKHLHSAGIIHRDLKPSNIVVKSDCTLKILDFGLARTAGTSFMMTPYVVTRYYRAPEVILGMGYKENVDLWSVGCIMGEMVCLKILFPGRDYIDQWNKVIEQLGTPCPEFMKKLQPTVRTYVENRPKYAGYSFEKLFPDVLFPADSEHNKLKASQARDLLSKMLVIDASKRISVDEALQHPYINVWYDPSEAEAPPPKIPDKQLDEREHTIEEWKELIYKEVMDLEERTKNGVIRGQPSPLGAAVINGSQHPVSSPSVNDMSSMSTDPTLASD
B2: zD15 (palmitoyl acyl transferase) expressed in HEK293 cells (enzyme, UniProt Q96MV8 1-337, looked up)
chain: MRRGWKMALSGGLRCCRRVLSWVPVLVIVLVVLWSYYAYVFELCLVTVLSPAEKVIYLILYHAIFVFFTWTYWKSIFTLPQQPNQKFHLSYTDKERYENEERPEVQKQMLVDMAKKLPVYTRTGSGAVRFCDRCHLIKPDRCHHCSVCAMCVLKMDHHCPWVNNCIGFSNYKFFLQFLAYSVLYCLYIATTVFSYFIKYWRGELPSVRSKFHVLFLLFVACMFFVSLVILFGYHCWLVSRNKTTLEAFCTPVFTSGPEKNGFNLGFIKNIQQVFGDKKKFWLIPIGSSPGDGHSFPMRSMNESQNPLLANEETWEDNEDDNQDYPEGSSSLAVETET
notes: Immunoprecipitated like myc-zD17
B3: endogenous JNK3 of rat cortical neuronal cultures and rat brain (enzyme, UniProt P49187 1-464, looked up)
chain: MSLHFLYYCSEPTLDVKIAFCQGFDKHVDVSSVVKHYNMSKSKVDNQFYSVEVGDSTFTVLKRYQNLKPIGSGAQGIVCAAYDAVLDRNVAIKKLSRPFQNQTHAKRAYRELVLMKCVNHKNIISLLNVFTPQKTLEEFQDVYLVMELMDANLCQVIQMELDHERMSYLLYQMLCGIKHLHSAGIIHRDLKPSNIVVKSDCTLKILDFGLARTAGTSFMMTPYVVTRYYRAPEVILGMGYKENVDIWSVGCIMGEMVRHKILFPGRDYIDQWNKVIEQLGTPCPEFMKKLQPTVRNYVENRPKYAGLTFPKLFPDSLFPADSEHNKLKASQARDLLSKMLVIDPAKRISVDDALQHPYINVWYDPAEVEAPPPQIYDKQLDEREHTIEEWKELIYKEVMNSEEKTKNGVVKGQPSPSGAAVNSSESLPPSSSVNDISSMSTDQTLASDTDSSLEASAGPLGCCR
B4: GFP-JNK3 (c-jun N-terminal kinase 3) expressed in HEK293 cells (enzyme, UniProt P53779 1-464, looked up)
chain: B3 chain with H27Q, S32Y, V33I, V34A
notes: not shown: GFP tag and linker of the gifted construct (Song et al. 2006)
B5: FLAG-MKK6 (enzyme, UniProt P52564 1-334, looked up)
chain: MSQSKGKKRNPGLKIPKEAFEQPQTSSTPPRDLDSKACISIGNQNFEVKADDLEPIMELGRGAYGVVEKMRHVPSGQIMAVKRIRATVNSQEQKRLLMDLDISMRTVDCPFTVTFYGALFREGDVWICMELMDTSLDKFYKQVIDKGQTIPEDILGKIAVSIVKALEHLHSKLSVIHRDVKPSNVLINALGQVKMCDFGISGYLVDSVAKTIDAGCKPYMAPERINPELNQKGYSVKSDIWSLGITMIELAILRFPYDSWGTPFQQLKQVVEEPSPQLPADKFSAEFVDFTSQCLKKNSKERPTYPELMQHPFFTLHESKGTDVASFVKLILGD
notes: Bought from Addgene; not shown: FLAG tag
B6: zD20 (palmitoyl acyl transferase) expressed in HEK293 cells (enzyme, UniProt Q5W0Z9 1-365, looked up)
chain: MAPWTLWRCCQRVVGWVPVLFITFVVVWSYYAYVVELCVFTIFGNEENGKTVVYLVAFHLFFVMFVWSYWMTIFTSPASPSKEFYLSNSEKERYEKEFSQERQQEILRRAARALPIYTTSASKTIRYCEKCQLIKPDRAHHCSACDSCILKMDHHCPWVNNCVGFSNYKFFLLFLLYSLLYCLFVAATVLEYFIKFWTNELTDTRAKFHVLFLFFVSAMFFISVLSLFSYHCWLVGKNRTTIESFRAPTFSYGPDGNGFSLGCSKNWRQVFGDEKKYWLLPIFSSLGDGCSFPTRLVGMDPEQASVTNQNEYARSSGSNQPFPIKPLSESKNRLLDSESQWLENGAEEGIVKSGTNNHVTVAIEN
notes: as for B2

Assay [1] addresses T2, endogenous zD17 of rat cortical neuronal cultures and rat brain (rat, UniProt E9PTT0 1-622).
T2 construct: Co-immunoprecipitated from lysates of Wistar rat cortical cultures or Sprague-Dawley rat brain
Put plainly: co-immunoprecipitation, neuronal cultures treated with glutamate.

Assay [2] deals with B4. Put plainly: co-immunoprecipitation, HEK293 cells.
Procedure: (§1) For co-immunoprecipitation, cultured cells were washed with ice-cold PBS followed by incubation with 0.5 ml Gentle Lysis Buffer (GLB) containing 25 mM Tris-HCl (pH 7.4), 2 mM EDTA, 1 mM EGTA, 10 mM NaCl, 0.5% Triton X-100 and 10% Glycerol supplemented with the Complete Protease Inhibitor Tablets (Roche Applied Science™, Indianapolis, Ind., USA) and 1 mM PMSF. Total protein concentration was determined with the BioRad™ Protein Assay kit. Lysates were first precleaned by incubating with Protein A-Sepharose beads (Roche Applied Science™) for 1 h at 4° C., followed by incubation with indicated antibodies (>16 h at 4° C.) and protein A Sepharose bead (2 h at 4° C.). Lysates of rat brain tissues were precleaned with IgG and protein A-beads. […] The relative intensities of the bands on immunoblots were analyzed and quantified using Image J™ (NIH).
The target of assay [3] is T2, endogenous zD17 of rat cortical …. Put plainly: co-immunoprecipitation, neuronal cultures treated with NMDA.
The target is the same in assay [4]. Put plainly: co-immunoprecipitation, neuronal cultures treated with TNF-α (50 ng/ml, 6 h).
Procedure: as §1
The target is the same in assay [5]. Put plainly: co-immunoprecipitation, neuronal cultures treated with IL-1β (10 ng/ml, 16 h).
Procedure: as §1
Assay [6] addresses T1, FLAG-MKK7 wt. Put plainly: co-immunoprecipitation, with against without zD17.
Procedure: as §1
In assay [7] the target is T3, myc-tagged full-length palmitoyl acyl transferase zinc-finger DHHC type containing 17 (zD17) (UniProt Q8IUH5 1-632).
T3 construct: range 1-632; Expressed in HEK293 cells (myc-zD17) or purified from E. coli as GST-myc-zD17 and freed of GST with thrombin; also called myc-zD17; zD17 wildtype
Put plainly: co-immunoprecipitation, HEK293 cells.
Procedure: as §1

Substitutions are numbered along the chain they refer to.

T2 sequence (E9PTT0 whole entry): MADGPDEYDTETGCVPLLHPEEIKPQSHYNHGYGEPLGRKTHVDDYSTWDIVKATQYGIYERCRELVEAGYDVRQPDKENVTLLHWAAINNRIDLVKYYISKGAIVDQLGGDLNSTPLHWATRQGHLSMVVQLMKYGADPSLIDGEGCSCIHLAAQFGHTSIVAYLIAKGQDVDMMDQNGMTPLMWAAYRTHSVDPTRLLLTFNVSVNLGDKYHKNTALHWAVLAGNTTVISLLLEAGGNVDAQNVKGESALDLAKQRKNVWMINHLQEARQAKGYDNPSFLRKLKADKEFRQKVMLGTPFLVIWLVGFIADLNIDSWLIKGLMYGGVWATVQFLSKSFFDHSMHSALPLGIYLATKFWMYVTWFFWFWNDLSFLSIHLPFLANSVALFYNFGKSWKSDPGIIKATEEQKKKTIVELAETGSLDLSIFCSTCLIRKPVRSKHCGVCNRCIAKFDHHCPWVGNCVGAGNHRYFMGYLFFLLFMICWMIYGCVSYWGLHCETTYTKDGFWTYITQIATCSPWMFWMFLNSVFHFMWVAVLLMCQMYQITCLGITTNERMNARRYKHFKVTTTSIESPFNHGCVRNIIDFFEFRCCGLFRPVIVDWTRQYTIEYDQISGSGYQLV
T3 sequence (Q8IUH5 whole entry): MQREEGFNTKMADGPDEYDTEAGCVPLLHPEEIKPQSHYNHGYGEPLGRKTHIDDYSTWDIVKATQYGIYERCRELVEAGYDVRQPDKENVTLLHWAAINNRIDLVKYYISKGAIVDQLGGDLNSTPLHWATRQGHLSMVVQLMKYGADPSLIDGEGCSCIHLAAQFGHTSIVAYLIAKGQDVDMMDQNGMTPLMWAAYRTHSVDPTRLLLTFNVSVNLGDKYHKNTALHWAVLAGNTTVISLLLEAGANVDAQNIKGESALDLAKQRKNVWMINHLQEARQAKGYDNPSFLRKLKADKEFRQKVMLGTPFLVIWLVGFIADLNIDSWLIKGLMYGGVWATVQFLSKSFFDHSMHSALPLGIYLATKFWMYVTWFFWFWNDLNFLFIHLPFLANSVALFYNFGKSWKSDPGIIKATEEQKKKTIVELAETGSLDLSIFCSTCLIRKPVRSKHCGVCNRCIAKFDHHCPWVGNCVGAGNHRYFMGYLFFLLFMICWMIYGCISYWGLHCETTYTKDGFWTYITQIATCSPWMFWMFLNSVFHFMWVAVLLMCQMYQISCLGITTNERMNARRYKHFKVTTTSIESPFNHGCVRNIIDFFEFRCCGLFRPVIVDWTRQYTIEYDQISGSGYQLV

As to B1, the “fold increase of zD17 interaction compared with control” value in assay [1] came to 1.4 fold.

With B2, the binding result in assay [2] was “no binding”.

B3: the “fold increase of zD17 interaction compared with control” value in assay [3] came out at 2.5 fold; in assay [1], 2.6 fold. The “fold increase of zD17-JNK3 interaction against control” value in assay [4] amounted to 1.53 fold; in assay [5] it was 1.88 fold. Take B4: in assay [6], the “fold enhancement of the JNK3-MKK7 association in the presence of zD17” value is 2.41 fold.

Regarding B5, the binding result in assay [7] is on record as “no binding”.

With B6, in assay [2], the binding result was “no binding”.
